Source: US20190010203A1 (ADEPTHERA, published 2019)
Non-standard residues stand in square brackets, D forms with d. No end group written: not given here. *: point of attachment. Palmitoyl = CCCCCCCCCCCCCCCC(=O)*; AEEEA = NCCOCCOCCOCC(=O)O

Tests used:
Assay in all cases: cell-based or functional assay
[1] = target: T1, CLR/RAMP1 receptor (UniProt Q16602 23-461; O60894 27-148, limits assumed)
[2] = target: T2, CLR/RAMP2 receptor (UniProt Q16602 23-461; O60895 43-175, limits assumed)
[3] = target: T1, CLR/RAMP1 receptor; remark: listed apart in the source
[4] = target: T2, CLR/RAMP2 receptor; remark: listed apart in the source

T2 sequence (Q16602 23-461 limits assumed, chain 1 of 2): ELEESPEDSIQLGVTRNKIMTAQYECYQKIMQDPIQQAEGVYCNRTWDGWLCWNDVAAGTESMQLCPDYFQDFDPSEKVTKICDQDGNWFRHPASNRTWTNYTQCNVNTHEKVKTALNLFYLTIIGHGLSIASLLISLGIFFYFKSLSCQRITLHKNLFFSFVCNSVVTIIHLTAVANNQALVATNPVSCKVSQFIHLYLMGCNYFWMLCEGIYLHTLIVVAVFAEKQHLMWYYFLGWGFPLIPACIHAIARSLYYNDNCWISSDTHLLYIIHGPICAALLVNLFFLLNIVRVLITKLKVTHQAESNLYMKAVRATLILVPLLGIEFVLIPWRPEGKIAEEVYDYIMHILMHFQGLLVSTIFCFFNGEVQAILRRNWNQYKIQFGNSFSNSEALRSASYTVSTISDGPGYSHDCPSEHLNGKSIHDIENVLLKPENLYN
T2 sequence (O60895 43-175 limits assumed, chain 2 of 2): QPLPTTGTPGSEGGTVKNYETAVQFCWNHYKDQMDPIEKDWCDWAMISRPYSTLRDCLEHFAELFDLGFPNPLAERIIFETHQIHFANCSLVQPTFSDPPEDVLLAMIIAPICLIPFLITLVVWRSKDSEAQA
T1 sequence (Q16602 23-461 limits assumed, chain 1 of 2): as the sequence (Q16602 23-461 limits assumed, chain 1 of 2) above
T1 sequence (O60894 27-148 limits assumed, chain 2 of 2): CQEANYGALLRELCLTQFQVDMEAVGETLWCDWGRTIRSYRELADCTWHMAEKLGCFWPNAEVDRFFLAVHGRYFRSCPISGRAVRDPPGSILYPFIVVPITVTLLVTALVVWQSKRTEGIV

| Binder | EC50 (nM), CLR/RAMP1 cAMP assay [1] [nM] | EC50 (nM), CLR/RAMP2 arrestin assay [2] [nM] | also measured |
| --- | --- | --- | --- |
| Ac-FGCRFGTCTVQKLAHQIYQFTDKDKDNVAPRSKISPQGY-NH2 (cysteine pairing not given here) [human ADM, SEQ ID NO: 53] | – | – | Max Activity % of positive control, CLR/RAMP1 cAMP assay [1]: 69 % of positive control; Max Activity % of positive control, CLR/RAMP2 arrestin assay [2]: 102 % of positive control |
| miniPEG-K(Palmitoyl)TKKTLRTGCRFGTCTVQKLAHQIYQFTDKDKDNVAPRSKISPQGY-NH2 (ends and bridges not checked) [SEQ ID NO: 70] | – | – | Max Activity % of positive control, CLR/RAMP1 cAMP assay [1]: 69 % of positive control; Max Activity % of positive control, CLR/RAMP2 arrestin assay [2]: 68 % of positive control |
| Palmitoyl-KGCRFGTCTVQKLAHQIYQFTDKGRQDSAPVDPSSPHSY-NH2 (ends and bridges not checked) [SEQ ID NO: 36] | 0.6 | 0.9 | – |
| Ac-TK(Palmitoyl)KTLRTGCRFGTCTVQKLAHQIYQFTDKDKDNSAPVDPSSPHSY-NH2 (ends and bridges not checked) [SEQ ID NO: 39] | 0.2 | 0.5 | – |
| Palmitoyl-KGCRFGTCTVQKLAHQIYQFTDKDKDNVAPVDPSSPHSY-NH2 (ends and bridges not checked) [SEQ ID NO: 34] | 0.2 | 0.7 | – |
| miniPEG-K(Palmitoyl)GCRFGTCTVQKLAHQIYQFTDKDKDNVAPVDPSSPHSY-NH2 (cysteine pairing not given here) [SEQ ID NO: 50] | – | – | Max Activity % of positive control, CLR/RAMP1 cAMP assay [1]: 65 % of positive control; Max Activity % of positive control, CLR/RAMP2 arrestin assay [2]: 87 % of positive control |
| Palmitoyl-TVQKLAHQIYQFTDKDKDNSAPVDPSSPHSY-NH2 [SEQ ID NO: 77] | – | – | IC50 (nM), CGRP-stimulated CLR/RAMP1 cAMP assay [3]: 9.9 nM; IC50 (nM), ADM-stimulated CLR/RAMP2 arrestin assay [4]: 47 nM |
| Palmitoyl-KTKKTLRTGCRFGTCTVQKLAHQIYQFTDKDKDNVAPVDPSSPHSY-NH2 (not fully specified; printed as Pal-KTKKTLRTGCRFGTCTVQKLAHQIYQFTDKDKDNVAPVDPSSPHSY-NH2; ends and bridges not checked) [SEQ ID NO: 40] | 2 | 1 | – |
| Palmitoyl-KGCRFGTCTVQKLAHQIYQFTDKDKDNSAPVDPSSPHSY-NH2 (ends and bridges not checked) [SEQ ID NO: 30] | 0.4 | 0.6 | – |
| [AEEEA]K(Palmitoyl)GCRFGTCTVQKLAHLWQLMGPAGRQDSAPVDPSSPHSY-NH2 (ends and bridges not checked) [SEQ ID NO: 62] | – | – | Max Activity % of positive control, CLR/RAMP1 cAMP assay [1]: 2 % of positive control |
| Ac-K(Palmitoyl)GCRFGTCTVQKLAHQIYQFTPAGRQDSAPVDPSSPHSY-NH2 (ends and bridges not checked) [SEQ ID NO: 33] | 0.3 | 0.4 | – |
| Ac-TK(Palmitoyl)KTLRTGCRFGTCTVQKLAHQIYQFTDKDKDNVAPVDPSSPHSY-NH2 (ends and bridges not checked) [SEQ ID NO: 41] | 0.4 | 0.9 | – |
| Palmitoyl-KGCRFGTCTVQKLAHQIYQFTPAGRQDSAPVDPSSPHSY-NH2 (ends and bridges not checked) [SEQ ID NO: 31] | 0.8 | 0.9 | – |
| Palmitoyl-KTKKTLRTGCRFGTCTVQKLAHQIYQFTDKDKDNSAPVDPSSPHSY-NH2 (not fully specified; printed as Pal-KTKKTLRTGCRFGTCTVQKLAHQIYQFTDKDKDNSAPVDPSSPHSY-NH2; ends and bridges not checked) [SEQ ID NO: 38] | 0.5 | 0.7 | – |
| miniPEG-TK(Palmitoyl)KTLRTGCRFGTCTVQKLAHQIYQFTDKDKDNVAPVDPSSPHSY-NH2 (cysteine pairing not given here) [SEQ ID NO: 42] | – | 0.2 | – |
| Palmitoyl-KGCRFGTCTVQKLAHQIYQFTDKDKQDSAPVDPSSPHSY-NH2 (ends and bridges not checked) [SEQ ID NO: 35] | 0.8 | 1 | – |
| Ac-TVQKLAHQIYQFTDKDKDNSAPVDPSSPHSY-NH2 [SEQ ID NO: 76] | – | – | IC50 (nM), CGRP-stimulated CLR/RAMP1 cAMP assay [3]: 1120 nM; IC50 (nM), ADM-stimulated CLR/RAMP2 arrestin assay [4]: 289 nM |
| miniPEG-K(Palmitoyl)GCRFGTCTVQKLAHQIYQFTDKDKDNVDPSSPHSY-NH2 (cysteine pairing not given here) [SEQ ID NO: 94] | – | – | Max Activity % of positive control, CLR/RAMP1 cAMP assay [1]: 67 % of positive control; Max Activity % of positive control, CLR/RAMP2 arrestin assay [2]: 82 % of positive control |
| [AEEEA]K(Palmitoyl)CRFGTCTVQKLAHQIYQFTDKDKDNSAPVDPSSPHSY-NH2 (ends and bridges not checked) [SEQ ID NO: 43] | 0.5 | 0.2 | Max Activity % of positive control, CLR/RAMP1 cAMP assay [1]: 39 % of positive control; Max Activity % of positive control, CLR/RAMP2 arrestin assay [2]: 30 % of positive control |
| [AEEEA]K(Palmitoyl)GCRFGTCTVQKLAHQIYQFTDKDKDSAPVDPSSPHSY-NH2 (ends and bridges not checked) [SEQ ID NO: 46] | – | 0.5 | Max Activity % of positive control, CLR/RAMP2 arrestin assay [2]: 104 % of positive control |
| Palmitoyl-GCRFGTCTVQKLAHQIYQFTDKDKDNSAPVDPSSPHSY-NH2 (ends and bridges not checked) [SEQ ID NO: 45] | 0.1 | 0.3 | – |
| Palmitoyl-KCRFGTCTVQKLAHQIYQFTDKDKDNSAPVDPSSPHSY-NH2 (ends and bridges not checked) [SEQ ID NO: 44] | 0.1 | 0.2 | – |
| Palmitoyl-KVQKLAHQIYQFTDKSAPVDPSSPHSY-NH2 [SEQ ID NO: 125] | – | – | IC50 (nM), CGRP-stimulated CLR/RAMP1 cAMP assay [3]: 7 nM; IC50 (nM), ADM-stimulated CLR/RAMP2 arrestin assay [4]: 7.1 nM |

The next lines start with results.

| EC50 (nM), CLR/RAMP1 cAMP assay [1] [nM] | EC50 (nM), CLR/RAMP2 arrestin assay [2] [nM] | Binder | also measured |
| --- | --- | --- | --- |
| 909 | 149 | Ac-VGCRFGTCTVQKLAHQIYQFTPAGRQDSAPVDPSSPHSY-NH2 (ends and bridges not checked) [SEQ ID NO: 57] | – |
| 43 | 6.4 | Palmitoyl-KGCRFGTCTVQKLAHQIYQFTDKDAPVDPSSPHSY-NH2 (ends and bridges not checked) [SEQ ID NO: 110] | – |
| 31 | 18 | Ac-KGCRFGTCTVQKLAHQIYQFTDKDKDNSAPVDPSSPHSY-NH2 (ends and bridges not checked) [SEQ ID NO: 59] | – |
| 224 | 17 | Ac-VGCRFGTCTVQKLAHQIYQFTDKDKDNSAPVDPSSPHSY-NH2 (ends and bridges not checked) [SEQ ID NO: 56] | – |
| 34 | 49 | KGCRFGTCTVQKLAHQIYQFTDKDKDNVAPRSKISPQGY (N-terminal palmitoyl (Pal); palmitoyl on Lys 1 side chain, K(Pal); C-terminal amide) [SEQ ID NO: 73] | – |
| 771 | 17 | Ac-KGCRFGTCTVQKLAHQIYQFTDKDSAPVDPSSPHSY-NH2 (ends and bridges not checked) [SEQ ID NO: 93] | – |
| – | 0.4 | miniPEG-K(Palmitoyl)GCRFGTCTVQKLAHQIYQFTDKDKSAPVDPSSPHSY-NH2 (ends and bridges not checked) [SEQ ID NO: 47] | Max Activity % of positive control, CLR/RAMP1 cAMP assay [1]: 85 % of positive control; Max Activity % of positive control, CLR/RAMP2 arrestin assay [2]: 64 % of positive control |
| 234 | – | Ac-K(Palmitoyl)GCRFGTCTVQKLAHQIYQFTDKDKDNVAPRSKSSPHSY-NH2 (ends and bridges not checked) [SEQ ID NO: 65] | – |
| – | 0.3 | [AEEEA]K(Palmitoyl)GCRFGTCTVQKLAHQIYQFTDKDKQDSAPVDPSSPHSY-NH2 (ends and bridges not checked) [SEQ ID NO: 51] | – |
| 16 | 3 | Ac-KGCRFGTCTVQKLAHQIYQFTDKDKDNVAPVDPSSPHSY-NH2 (ends and bridges not checked) [SEQ ID NO: 60] | – |
